Data reported in patent publication US20250136688A1 (Janssen / Centocor, published 2025).

Columns and labels:
Human CD3 epsilon [1] = target: T1, Human CD3 epsilon (human, UniProt P07766 23-207); assay: flow cytometry on T cells of healthy human donor 888668965
T1 construct: Stood on human T cells (pan-T cells, isolated donor T cells) as part of the TCR/CD3 complex; the other chains of the complex are not written here; also called CD3ε; CD3R

[2] = target: T2, ectonucleotide pyrophosphatase/phosphodiesterase family member 1 (ENPP1) (human, UniProt P22413 1-925); assay: flow cytometry on CHOK1 cells overexpressing ENPP1
T2 construct: whole, on cells
T2 sequence (looked up): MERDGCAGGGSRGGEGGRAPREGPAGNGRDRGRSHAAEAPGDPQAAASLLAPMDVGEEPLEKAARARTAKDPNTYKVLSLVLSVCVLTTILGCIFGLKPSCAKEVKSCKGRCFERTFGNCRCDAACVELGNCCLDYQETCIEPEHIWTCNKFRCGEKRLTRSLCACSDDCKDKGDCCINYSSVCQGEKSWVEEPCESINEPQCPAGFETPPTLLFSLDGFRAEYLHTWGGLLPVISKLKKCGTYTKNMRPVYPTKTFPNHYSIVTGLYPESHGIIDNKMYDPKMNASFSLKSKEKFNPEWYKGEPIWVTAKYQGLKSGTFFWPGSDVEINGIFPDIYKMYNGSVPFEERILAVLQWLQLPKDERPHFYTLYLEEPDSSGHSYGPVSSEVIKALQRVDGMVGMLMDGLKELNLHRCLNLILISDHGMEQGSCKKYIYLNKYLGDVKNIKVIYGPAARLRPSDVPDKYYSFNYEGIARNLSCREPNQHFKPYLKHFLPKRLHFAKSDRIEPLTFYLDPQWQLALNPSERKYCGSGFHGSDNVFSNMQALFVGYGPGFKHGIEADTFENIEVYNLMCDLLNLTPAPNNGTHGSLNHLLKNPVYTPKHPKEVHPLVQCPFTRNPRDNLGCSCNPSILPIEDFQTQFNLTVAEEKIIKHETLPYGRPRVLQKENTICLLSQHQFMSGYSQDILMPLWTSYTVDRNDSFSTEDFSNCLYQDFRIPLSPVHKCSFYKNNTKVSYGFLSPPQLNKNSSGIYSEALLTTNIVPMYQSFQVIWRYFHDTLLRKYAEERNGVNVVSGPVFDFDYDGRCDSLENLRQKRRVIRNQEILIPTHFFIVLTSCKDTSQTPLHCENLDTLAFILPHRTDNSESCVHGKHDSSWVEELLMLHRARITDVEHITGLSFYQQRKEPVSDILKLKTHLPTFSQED

[3] = target: T3, ectonucleotide pyrophosphatase/phosphodiesterase family member 3 (ENPP3) (human, UniProt O14638 1-875); assay: flow cytometry on A704 cells
T3 construct: whole, on cells; also called CD203c
T3 sequence (looked up): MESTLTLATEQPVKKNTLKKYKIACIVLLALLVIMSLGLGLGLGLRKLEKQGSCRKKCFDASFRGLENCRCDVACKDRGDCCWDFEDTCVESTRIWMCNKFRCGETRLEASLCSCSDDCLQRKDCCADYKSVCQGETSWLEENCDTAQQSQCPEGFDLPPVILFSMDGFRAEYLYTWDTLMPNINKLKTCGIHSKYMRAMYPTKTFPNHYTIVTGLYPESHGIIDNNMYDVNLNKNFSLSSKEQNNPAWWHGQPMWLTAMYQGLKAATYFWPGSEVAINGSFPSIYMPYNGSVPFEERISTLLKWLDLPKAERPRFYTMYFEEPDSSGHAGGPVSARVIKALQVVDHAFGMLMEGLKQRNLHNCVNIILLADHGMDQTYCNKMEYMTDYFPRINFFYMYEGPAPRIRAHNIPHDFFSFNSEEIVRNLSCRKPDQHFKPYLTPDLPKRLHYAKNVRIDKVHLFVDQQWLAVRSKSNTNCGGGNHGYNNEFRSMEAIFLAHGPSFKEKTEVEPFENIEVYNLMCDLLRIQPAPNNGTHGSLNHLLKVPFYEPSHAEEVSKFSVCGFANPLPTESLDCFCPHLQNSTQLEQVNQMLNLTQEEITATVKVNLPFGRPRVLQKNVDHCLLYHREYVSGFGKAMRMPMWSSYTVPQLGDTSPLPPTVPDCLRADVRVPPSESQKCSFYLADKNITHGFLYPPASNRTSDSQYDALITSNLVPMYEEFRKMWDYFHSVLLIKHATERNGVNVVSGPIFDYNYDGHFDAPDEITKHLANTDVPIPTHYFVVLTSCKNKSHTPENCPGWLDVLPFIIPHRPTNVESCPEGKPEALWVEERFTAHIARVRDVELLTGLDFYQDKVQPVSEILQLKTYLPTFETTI

[4] = target: T3, ectonucleotide …; assay: cell-based or functional assay
Human CD3 epsilon [5] = target: T1, Human CD3 epsilon; assay: flow cytometry on T cells of healthy human donor 110042496
Human CD3 epsilon [6] = target: T1, Human CD3 epsilon; assay: flow cytometry on T cells of healthy human donor 110044049
Human CD3 epsilon [7] = target: T1, Human CD3 epsilon; assay: flow cytometry on T cells of healthy human donor 110048457
Human CD3 epsilon [8] = target: T1, Human CD3 epsilon; assay: flow cytometry on T cells of healthy human donor 110042593

T1 sequence (P07766 23-207 limits assumed): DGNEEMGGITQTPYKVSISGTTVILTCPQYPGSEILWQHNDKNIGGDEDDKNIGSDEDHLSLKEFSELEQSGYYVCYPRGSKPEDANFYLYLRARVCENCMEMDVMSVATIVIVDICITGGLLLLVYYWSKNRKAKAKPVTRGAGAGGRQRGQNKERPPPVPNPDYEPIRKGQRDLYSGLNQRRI

EC50 (Human CD3 epsilon [1]): 197 nM
binding result [2]: no binding
EC50 [3]: 1.01 nM
EC50 (Human CD3 epsilon [5]): 147 nM
EC50 (Human CD3 epsilon [6]): 188 nM
EC50 (Human CD3 epsilon [7]): 132 nM
EC50 (Human CD3 epsilon [8]): 146 nM
B1: NPP3B815 (NPP3B56×CD3B2030-N106A-spFv) (bispecific antibody, human IgG1, kappa, L234A L235A)
chain: EIVLTQSPATLSASPGERVTLSCSASSSVSYMNWYQQKPGCAPRRWIYDSSKLASGVPARFSGSGSGRDYTLTISSLEPEDFAVYYCQQWSRNPPTFGGGTKVEIKGGGSGGSGGCPPCGGSGGQVQLVQSGAEVKKPGSSVKVSCKASGYTFTRSTMHWVKQAPGQGLEWIGYINPSSAYTNYNQKFQGRVTLTADKSTSTAYMELSSLRSEDTAVYYCASPQVHYDYAGFPYWGCGTLVTVSSEPKSSDKTHTCPPCPAPEAAGGPSVFLFPPKPKDTLMISRTPEVTCVVVSVSHEDPEVKFNWYVDGVEVHNAKTKPREEQYNSTYRVVSVLTVLHQDWLNGKEYKCKVSNKALPAPIEKTISKAKGQPREPQVYTLPPSREEMTKNQVSLWCLVKGFYPSDIAVEWESNGQPENNYKTTPPVLDSDGSFFLYSKLTVDKSRWQQGNVFSCSVMHEALHNHYTQKSLSLSPGK
heavy: EVQLVESGGGRVKPGGSLRLSCAASGFTFSDYSMNWVRQAPGKGLEWVSSISSISSYVKYADSVKGRFTMSRDNAKNSLFLQMNSLRDEDMAVYYCARGHYFDYWGQGTLVTVSSASTKGPSVFPLAPSSKSTSGGTAALGCLVKDYFPEPVTVSWNSGALTSGVHTFPAVLQSSGLYSLSSVVTVPSSSLGTQTYICNVNHKPSNTKVDKKVEPKSCDKTHTCPPCPAPEAAGGPSVFLFPPKPKDTLMISRTPEVTCVVVSVSHEDPEVKFNWYVDGVEVHNAKTKPREEQYNSTYRVVSVLTVLHQDWLNGKEYKCKVSNKALPAPIEKTISKAKGQPREPQVYTLPPSREEMTKNQVSLSCAVKGFYPSDIAVEWESNGQPENNYKTTPPVLDSDGSFFLVSKLTVDKSRWQQGNVFSCSVMHEALHNRFTQKSLSLSPGK
light: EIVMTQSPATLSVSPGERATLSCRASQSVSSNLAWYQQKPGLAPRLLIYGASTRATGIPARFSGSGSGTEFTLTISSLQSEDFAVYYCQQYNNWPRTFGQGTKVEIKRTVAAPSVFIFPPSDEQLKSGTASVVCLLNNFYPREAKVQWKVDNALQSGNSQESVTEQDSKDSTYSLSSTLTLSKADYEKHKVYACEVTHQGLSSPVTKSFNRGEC
notes: Heavy Chain 1 = anti-CD3 spFv-Fc (knob); Heavy Chain 2 and Light Chain = anti-ENPP3 Fab arm NPP3B56 (hole); IgG1 with L234A, L235A, D265S; also called ENPP3×CD3
killing EC50 with PBMCs, A704, donor 110040278, E:T 3:1 [4]: 0.052 nM
killing EC50 with PBMCs, A704, donor 110040278, E:T 5:1 [4]: 0.028 nM
killing EC50 with PBMCs, A704, donor 110042496, E:T 3:1 [4]: 0.097 nM
killing EC50 with PBMCs, A704, donor 110042496, E:T 5:1 [4]: 0.061 nM
killing EC50 with PBMCs, A704, donor 110042593, E:T 1:1 [4]: 0.124 nM
killing EC50 with PBMCs, A704, donor 110042593, E:T 3:1 [4]: 0.039 nM
killing EC50 with PBMCs, A704, donor 110042593, E:T 5:1 [4]: 0.015 nM
killing EC50 with PBMCs, A704, donor 110044049, E:T 1:1 [4]: 0.131 nM
killing EC50 with PBMCs, A704, donor 110044049, E:T 3:1 [4]: 0.052 nM
killing EC50 with PBMCs, A704, donor 110044049, E:T 5:1 [4]: 0.016 nM
killing EC50 with PBMCs, A704, donor 110048457, E:T 3:1 [4]: 0.046 nM
killing EC50 with PBMCs, A704, donor 110048457, E:T 5:1 [4]: 0.013 nM
killing EC50 with PBMCs, A704, donor 888668965, E:T 1:1 [4]: 0.107 nM
killing EC50 with PBMCs, A704, donor 888668965, E:T 3:1 [4]: 0.036 nM
killing EC50 with PBMCs, A704, donor 888668965, E:T 5:1 [4]: 0.015 nM
killing EC50 with PBMCs, VMRCRCW, donor 110040278, E:T 5:1 [4]: 0.033 nM
killing EC50 with PBMCs, VMRCRCW, donor 110042496, E:T 5:1 [4]: 0.065 nM
killing EC50 with PBMCs, VMRCRCW, donor 110042593, E:T 5:1 [4]: 0.033 nM
killing EC50 with PBMCs, VMRCRCW, donor 110044049, E:T 5:1 [4]: 0.051 nM
killing EC50 with PBMCs, VMRCRCW, donor 110048457, E:T 5:1 [4]: 0.063 nM
killing EC50 with PBMCs, VMRCRCW, donor 888668965, E:T 5:1 [4]: 0.062 nM
